In patent US10940182B2, “Use of modified vasoactive intestinal peptides in the treatment of hypertension” (PhaseBio Pharmaceuticals, Inc., priority 2011, dated 2021):

Tests used:
[1] = system: conscious spontaneously hypertensive rats (SHR); assay: Telemetric blood pressure and heart rate in conscious SHR pretreated with anti-hypertensives (Example 8); format: in vivo, rat; settings: 9 mg/kg SQ
Experimental: The hemodynamic effects of Vasomera™ when given as a single-dose SQ bolus to conscious spontaneously hypertensive rats (SHR) pretreated with three common anti-hypertensives were tested.
SHR rats (351±4 g, n=8) were instrumented for telemetric BP and ECG monitoring. First, both Vasomera™ (9 mg [177 nmol]/kg, SQ) and placebo (VEH) were assayed in untreated animals. Then, the effects of Vasomera™ were tested during concomitant oral β-adrenergic receptor blockade (+BB, atenolol 20 mg/kg/day), calcium-channel blockade (+CCB, amlodipine 5 mg/kg/day) and ACE-inhibition (+ACE, ramipril 1 mg/kg/day). Mean arterial pressure (MAP) and heart rate (HR) were measured/averaged over 24 hours both pre- and post-dosing.

[2] = system: conscious spontaneously hypertensive rats (SHR); assay: Telemetric blood pressure and heart rate in conscious SHR, single SQ dose, with and without atenolol (Example 7); format: in vivo, rat; settings: for heart rate: +2 hr
Experimental: Here, the effects of PB 1046 (Vasomera™) when given as a single-dose SQ bolus to conscious spontaneously hypertensive rats (SHR) was tested.
SHR rats (351±4 g, n=8) were instrumented for telemetric blood pressure and ECG monitoring. Via a Latin-Square design, the effects of Vasomera (1, 3, and 9 mg/kg SQ) as well as of vehicle (VEH, SQ) were evaluated. Finally, Vasomera™ (9 mg/kg SQ) was assayed during concomitant β-adrenergic receptor blockade (BB, atenolol 20 mg/kg/day PO). Changes in mean arterial pressure (MAP) and heart rate (HR) were measured.

[3] = target: T1, human Vasoactive Intestinal Peptide Receptor 1 (VPAC1) (Homo sapiens, UniProt P32241); assay: cAMP cell-based bioassay, CHO cells expressing VPAC1; settings: for in vitro activity for VPAC1 receptor compared with native VIP: cAMP, CHO cells expressing VPAC1, 30 minute incubation, FIG. 7, PB1047 DPP-IV treated
T1 construct: expressed in transfected cells; host or cells: Chinese Hamster Ovary (CHO) cells
T1 sequence (P32241 31-457): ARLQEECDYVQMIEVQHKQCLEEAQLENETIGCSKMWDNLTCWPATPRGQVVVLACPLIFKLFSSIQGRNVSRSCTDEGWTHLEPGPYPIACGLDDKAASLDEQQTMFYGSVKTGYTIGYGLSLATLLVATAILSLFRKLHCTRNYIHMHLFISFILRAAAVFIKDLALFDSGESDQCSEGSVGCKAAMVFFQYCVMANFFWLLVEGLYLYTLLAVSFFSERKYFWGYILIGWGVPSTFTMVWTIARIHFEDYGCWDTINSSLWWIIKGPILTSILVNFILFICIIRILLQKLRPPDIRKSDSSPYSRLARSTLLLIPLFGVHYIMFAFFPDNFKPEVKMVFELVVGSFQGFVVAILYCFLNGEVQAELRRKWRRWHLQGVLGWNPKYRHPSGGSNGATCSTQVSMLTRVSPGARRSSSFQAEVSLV
Experimental: (§1) Since the amount of cAMP accumulation in cells after receptor-mediated ligand binding and activation is directly proportional to the amount of intact peptide or fusion protein present, the assay can be used to determine bioactivity and relative potency.
After 30 minute incubations of various concentrations of the fusion proteins with CHO cells, cells were lysed and the amount of cAMP produced was measured using a commercial kit. PB1047 was DPP-IV treated prior to the addition to the cells.
The activity of the PB1120 fusion peptide was tested in vitro.

[4] = target: T2, human Vasoactive Intestinal Peptide Receptor 2 (VPAC2) (Homo sapiens, UniProt P41587); assay: cAMP cell-based bioassay, CHO cells expressing VPAC2; settings: for in vitro activity for VPAC2 receptor compared with native VIP: cAMP, CHO cells expressing VPAC2, 30 minute incubation, FIG. 6, PB1047 DPP-IV treated
T2 construct: expressed in transfected cells; host or cells: Chinese Hamster Ovary (CHO) cells
T2 sequence (P41587 24-438): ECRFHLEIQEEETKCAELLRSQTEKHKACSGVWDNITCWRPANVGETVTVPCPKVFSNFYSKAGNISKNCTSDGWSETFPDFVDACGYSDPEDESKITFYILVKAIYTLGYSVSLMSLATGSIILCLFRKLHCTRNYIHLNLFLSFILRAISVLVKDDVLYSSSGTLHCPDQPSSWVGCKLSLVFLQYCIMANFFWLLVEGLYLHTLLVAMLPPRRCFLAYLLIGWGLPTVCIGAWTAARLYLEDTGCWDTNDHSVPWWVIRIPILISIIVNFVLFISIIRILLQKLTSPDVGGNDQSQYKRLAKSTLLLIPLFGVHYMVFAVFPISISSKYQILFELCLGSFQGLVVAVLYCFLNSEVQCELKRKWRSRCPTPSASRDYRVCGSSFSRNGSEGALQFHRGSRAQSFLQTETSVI
Experimental: as §1
In this example, the activity of VIP-ELP fusion proteins PB1046 and PB1047 was tested. […] Both constructs have ELP(1-120) at their C-terminus. […] After 30 minute incubations of various concentrations of the fusion proteins with the cell, the cells were lysed and the amount of cAMP produced was measured using a commercial kit. PB1047 was DPP-IV treated prior to the addition to the cells.
FIG. 11 illustrates the activity of PB1120 for the VPAC2 receptor. […] However, in contrast to the results seen with VPAC1, PB1046 was equipotent for VPAC2 as compared to the native peptide.

[5] = system: Spontaneously hypertensive rats; assay: Blood pressure effect of PB1047 in spontaneously hypertensive rats; format: in vivo, rat; settings: 10 mg/kg subcutaneous, vs buffer control, FIG. 8
Experimental: The activity of the modified VIP-ELP fusion protein PB1047 was also tested in vivo. Specifically, effects of VIP-ELP fusion protein on blood pressure were tested. Spontaneously hypertensive rats were treated subcutaneous with PB1047 (10 mg/kg) or buffer control and their blood pressures were measured at several points after administration of the fusion protein. Five animals were used for each group and the graphs show the average and the standard deviation.

[6] = under β-adrenergic receptor blockade (atenolol 20 mg/kg/day)
[7] = untreated rats, averaged over 24 hours

B1: PB1046: VIP-ELP fusion protein: VIP with Met at the N-terminus and ELP1-120 fused at the C-terminus (SEQ ID NO: 14) (protein)
chain: MHSDAVFTDNYTRLRKQMAVKKYLNSILNVPGVGVPGVGVPGGGVPGAGVPGVGVPGVGVPGVGVPGGGVPGAGVPGGGVPGVGVPGVGVPGGGVPGAGVPGVGVPGVGVPGVGVPGGGVPGAGVPGGGVPGVGVPGVGVPGGGVPGAGVPGVGVPGVGVPGVGVPGGGVPGAGVPGGGVPGVGVPGVGVPGGGVPGAGVPGVGVPGVGVPGVGVPGGGVPGAGVPGGGVPGVGVPGVGVPGGGVPGAGVPGVGVPGVGVPGVGVPGGGVPGAGVPGGGVPGVGVPGVGVPGGGVPGAGVPGVGVPGVGVPGVGVPGGGVPGAGVPGGGVPGVGVPGVGVPGGGVPGAGVPGVGVPGVGVPGVGVPGGGVPGAGVPGGGVPGVGVPGVGVPGGGVPGAGVPGVGVPGVGVPGVGVPGGGVPGAGVPGGGVPGVGVPGVGVPGGGVPGAGVPGVGVPGVGVPGVGVPGGGVPGAGVPGGGVPGVGVPGVGVPGGGVPGAGVPGVGVPGVGVPGVGVPGGGVPGAGVPGGGVPGVGVPGVGVPGGGVPGAGVPGVGVPGVGVPGVGVPGGGVPGAGVPGGGVPGVGVPGVGVPGGGVPGAGVPGVGVPGVGVPGVGVPGGGVPGAGVPGGGVPGWP
modifications: M-VIP ELP1-120
[1]; FIG. 15A
  duration of decreases in blood pressure post-dosing: up to 12 hours
[1]; rats pre-treated with amlodipine 5 mg/kg/day oral
  change in MAP: −13±2%
[1]; rats pre-treated with atenolol 20 mg/kg/day oral
  change in MAP: −14±1%
[1]; rats pre-treated with ramipril 1 mg/kg/day oral
  change in MAP: −9±2%
[1]; [6]
  change in heart rate: +6±1%
  heart rate post-dosing: 294±2 bpm
[1]; [7]
  MAP post-dosing: 171±5 mmHg
  change in heart rate: +8±1%
  heart rate post-dosing: 384±8 bpm
  lowering of MAP, post- vs pre-dosing: 9±1%
[1]; with amlodipine 5 mg/kg/day
  chronotropy under co-treatment: unaffected
[1]; with ramipril 1 mg/kg/day
  chronotropy under co-treatment: unaffected
[1]; SHR, with or without anti-hypertensives
  adverse clinical effects: no adverse clinical effects were noted
[2]; 9 mg/kg (177 nmol/kg) SQ, +6 hr
  lowering of MAP vs VEH: 16±3%
[2]; 9 mg/kg SQ with β-adrenergic receptor blockade (atenolol 20 mg/kg/day PO)
  heart rate: 308±3 bpm
[2]; 9 mg/kg SQ with β-adrenergic receptor blockade (atenolol 20 mg/kg/day PO), +6 hr
  MAP: 131±3 mmHg
[2]; 9 mg/kg SQ
  heart rate: 370±15 bpm
[2]; 9 mg/kg SQ, +6 hr
  MAP: 154±5 mmHg
[2]; 1, 3, 9 mg/kg SQ, FIG. 14A
  duration of dose-dependent decreases in blood pressure post-dosing: up to 12 hours
[2]; SHR, 1-9 mg/kg SQ, with or without atenolol
  adverse clinical effects: No adverse clinical effects were noted
[3]; FIG. 10
  fold less active than the native VIP peptide on the VPAC1 receptor: approximately 11 fold
[3]
  in vitro activity for VPAC1 receptor compared with native VIP: much less active than native VIP protein
[4]; FIG. 11
  potency for VPAC2 as compared to the native peptide: equipotent
[4]; cAMP assays, FIG. 6 and 7
  selectivity for VPAC2 receptor over VPAC1 receptor: selectively activates VPAC2 receptor over VPAC1 receptor
[4]
  in vitro activity for VPAC2 receptor compared with native VIP: somewhat more active than native VIP protein

B2: PB1047: VIP-ELP fusion protein with tripeptide MAA at the N-terminus (Met removed to leave AA), ELP1-120 at C-terminus (SEQ ID NO: 15) (protein)
chain: MAAHSDAVFTDNYTRLRKQMAVKKYLNSILNVPGVGVPGVGVPGGGVPGAGVPGVGVPGVGVPGVGVPGGGVPGAGVPGGGVPGVGVPGVGVPGGGVPGAGVPGVGVPGVGVPGVGVPGGGVPGAGVPGGGVPGVGVPGVGVPGGGVPGAGVPGVGVPGVGVPGVGVPGGGVPGAGVPGGGVPGVGVPGVGVPGGGVPGAGVPGVGVPGVGVPGVGVPGGGVPGAGVPGGGVPGVGVPGVGVPGGGVPGAGVPGVGVPGVGVPGVGVPGGGVPGAGVPGGGVPGVGVPGVGVPGGGVPGAGVPGVGVPGVGVPGVGVPGGGVPGAGVPGGGVPGVGVPGVGVPGGGVPGAGVPGVGVPGVGVPGVGVPGGGVPGAGVPGGGVPGVGVPGVGVPGGGVPGAGVPGVGVPGVGVPGVGVPGGGVPGAGVPGGGVPGVGVPGVGVPGGGVPGAGVPGVGVPGVGVPGVGVPGGGVPGAGVPGGGVPGVGVPGVGVPGGGVPGAGVPGVGVPGVGVPGVGVPGGGVPGAGVPGGGVPGVGVPGVGVPGGGVPGAGVPGVGVPGVGVPGVGVPGGGVPGAGVPGGGVPGVGVPGVGVPGGGVPGAGVPGVGVPGVGVPGVGVPGGGVPGAGVPGGGVPGWP
modifications: MAA-VIP ELP1-120
[3]
  in vitro activity for VPAC1 receptor compared with native VIP: about the same as it was in the test for VPAC2 receptor
[4]
  in vitro activity for VPAC2 receptor compared with native VIP: less active
[5]
  diastolic blood pressure: significantly reduced
  systolic blood pressure: significantly reduced
